Data set [1] in a line: Aggregation state of Aβ(1–42) stock solutions (photoinduced cross-linking of unmodified proteins). The settings on record: 2 μM stock solutions. Format: physicochemical.
In data set [2] the target is (Ca^2+)4-CaM. As to conditions: read-out: dissociation constant of the Aβ:(Ca^2+)4-CaM complex; cited from earlier work. From the text: These neurons are in the brain areas that are highly prone to neurodegeneration in AD. […] Considering their spatial organization in the CaM structure, we included a couple of additional hydrophobic amino acid residues as spacing groups.

The target in data set [3] is T1, calmodulin (CaM) (Bos taurus, UniProt P62157).
T1 construct: Purified bovine brain CaM; purchased Sigma-Aldrich (Madrid, Spain); host or cells: bovine brain
In words: Kinetics of Aβ(1–42) HiLyte-Fluor555 complex formation with CaM (fluorescence increase). Format: binding, human.

For data set [4], the system named is CaM in cerebellar granule neurons in culture. As to conditions: 2 h incubation with 2 μM Aβ(1–42) oligomers; cited from earlier work. The source says: These neurons are in the brain areas that are highly prone to neurodegeneration in AD. […] Therefore, CaM has a high capacity to buffer the intracellular concentrations of these highly neurotoxic Aβ peptides ...

Details of data set [5]: method as in PMID 15890345, PMID 18686032, PMID 26890761, PMID 34829555. The settings on record: cited from earlier work.

For the substance “Aβ(1–42): unlabeled Aβ(1–42) synthesized and supplied by StabVida and GenicBio Limited”, in data set [1], the concentration of monomers result was “undetectable concentration of Aβ(1–42) monomers”. For the same substance, the predominant aggregation state entry in data set [1] (1% NH4OH diluted with phosphate-buffered saline) is “Dimers are the predominant aggregation state”. In addition, in data set [2], the Kd was approximately 1 nM. Besides, the stoichiometry of complex entry in data set [3] (10 nM CaM, 10 nM Aβ(1–42)) is recorded as “Aβ(1–42)2:CaM2 complexes”. Further, the “increase of rate constant” value in data set [3] (10 nM vs 5 nM CaM, 10 nM Aβ(1–42)) was “about 4 fold”. For the same substance, the “rate constant of the kinetic process” value in data set [3] (1:1 molar ratio, 10 nM CaM and 10 nM Aβ(1–42)) is “(18 ± 4)·10^−3 s^−1”. The “binding of internalized Aβ(1–42) by CaM” value in data set [4] is listed as “CaM binds most of the Aβ(1–42) internalized in cerebellar granule neurons”.
Take “Aβ(25–35): highly neurotoxic peptides derived from Aβ(1–42), like Aβ(25–35) (GSNKGAIIGLM; Amyloid-beta protein 42; UniProt P05067 696-706, looked up, fragment)”: the Kd in data set [2] was approximately 1 nM. Besides, in data set [5], the neurotoxicity entry is “strongly neurotoxic”.
Consider “Aβ(1–42) HiLyte^TM-Fluor555: Human Aβ(1–42)-HiLyte™-Fluor555 obtained from AnaSpec”, for which the “Y0, maximum fluorescence increase in the absence of the peptide” value in data set [3] (10 nM Aβ(1–42) HiLyte-Fluor555, 5 nM CaM, 1000 s after addition, hyperbolic fit R^2 = 0.966, triplicate) is on record as 22%. Besides, in data set [3] (10 nM Aβ(1–42) HiLyte-Fluor555, CaM 2.5, 5 and 10 nM), the “maximum fluorescence change vs CaM concentration” value was “the maximum fluorescence change was achieved when CaM concentration increased from 2.5 to 5 nM, and it is not significantly different between 5 and 10 nM of CaM”. Besides, in data set [3] (fit y = 9.845 − 0.00396 x (R^2 = 0.922), 10 nM Aβ(1–42) HiLyte-Fluor555, 5 nM CaM, sign of slope in the equation negative), the “slope of linear least-squares fit of first-order plot” value turned out to be 0.00396.
